Test results published in the supplement of paper PMC10201428.
± gives the standard deviation of the averaged measurements.

Key:
[1] = tested on: VchCAST RNA-guided transposition machinery (E. coli BL21(DE3) host, lacZ target); test: relative integration efficiency (T-LR orientation) vs wild-type transposon end (log2 (normalized fold change)); transposon end mutated: right end (5 bp flank + 75 bp right end); higher = more efficient transposition
Procedure, shortened: (§1)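 Barcode abundances in input plasmids and in genomic integration junctions were obtained by PCR amplification and Illumina sequencing. These came from E. coli BL21(DE3) co-transformed with a T7-driven effector plasmid and a pUC57 donor carrying 1549 left-end or 1849 right-end transposon variants, then plated with 0.1 mM IPTG at 37°C for 18 h. Relative integration efficiency is the output/input fold change, normalised to reference barcodes and log-transformed.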

[2] = tested on: VchCAST RNA-guided transposition machinery (E. coli BL21(DE3) host, lacZ target); test: relative integration efficiency (T-RL orientation) vs wild-type transposon end (log2 (normalized fold change)); transposon end mutated: right end (5 bp flank + 75 bp right end); higher = more efficient transposition
Procedure, shortened: as §1

| Sequence | relative integration efficiency (log2) [1] | relative integration efficiency (log2) [2] |
| --- | --- | --- |
| ACATTTGTTCATCCAACCATAAAATGATAATTACACCCATAAATGGATAATTATCACACCCAATTTAACTATAACGCTCTGATCATAGTCAGACCAACATTGCTACGACCCGTATTCGCACCGACAC | -0.431 ± 0.44 | -2.08 ± 0.37 |
| ACATTTGTTCATCCAACCATAAAATGATAATTACACCCATAAATGGATCATTATCACACCCAATTTAACTATAACGCTCTGATCATAGTCAGACCAACATTGCTACGACCCGTATTCGCACCGACAC | -1.01 ± 0.52 | -2.36 ± 0.26 |
| ACATTTGTTCATCCAACCATAAAATGATAATTACACCCATAAATTCATAATTATCACACCCAATTTAACTATAACGCTCTGATCATAGTCAGACCAACATTGCTACGACCCGTATTCGCACCGACAC | -1.1 ± 0.16 | -2.84 ± 0.39 |
| ACATTTGTTCATCCAACCATAAAATGATAATTACACCCATAAATTCATCATTATCACACCCAATTTAACTATAACGCTCTGATCATAGTCAGACCAACATTGCTACGACCCGTATTCGCACCGACAC | -0.745 ± 0.19 | -2.92 ± 0.45 |
| ACATTTGTTCATCCAACCATAAAATGATAATTACACCCATAAATTGATAATTATCACACCCAATTTAACTATAACGCTCTGATCATAGTCAGACCAACATTGCTACGACCCGTATTCGCACCGACAC | 0.451 ± 0.23 | -1.42 ± 0.29 |
| ACATTTGTTCATCCAACCATAAAATGATAATTACACCCATAAATTGATCATTATCACACCCAATTTAACTATAACGCTCTGATCATAGTCAGACCAACATTGCTACGACCCGTATTCGCACCGACAC | 0.101 ± 0.12 | -2.44 ± 0.32 |
| ACATTTGTTCTATCAACCATAAAATGATAATTACACCCATAAATTGATAATTATCACACCCATAAATTGATATTGCCTCTGATCATAGTCAGACCAACATTGCTACGACCCGTATTCGCACCGACAC | -4.42 ± 0.25 | -1.53 ± 0.17 |
| ACATTTGTTCTTACAACCATAAAATGATAATTACACCCATAAATTGATAATTATCACACCCATAAATTGATATTGCCTCTGATCATAGTCAGACCAACATTGCTACGACCCGTATTCGCACCGACAC | -3.55 ± 0.75 | -0.825 ± 0.14 |
| ACATTTGTTGAATCAACCATAAAATGATAATTACACCCATAAATTGATAATTATCACACCCATAAATTGATATTGCCTCTGATCATAGTCAGACCAACATTGCTACGACCCGTATTCGCACCGACAC | 0.00973 ± 0.13 | 0.38 ± 0.14 |
| ACATTTGTTGAATGTACCATAAAATGATAATTACACCCATAAATTGATAATTATCACACCCATAAATTGATATTGCCTCTGATCATAGTCAGACCAACATTGCTACGACCCGTATTCGCACCGACAC | -1.92 ± 0.32 | -0.836 ± 0.071 |
| ACATTTGTTGACAACCATAAAATGATAATTACACCCATAAATTGATAATTATCACACCCATAAATTGATATTGCCTCTGATCATAGTCAGACCAACATTGCTACGACCCGTATTCGCACCGACACTG | -6.81 ± 1.7 | -7.09 ± 0.12 |
| ACATTTGTTGAGCACACCATAAAATGATAATTACACCCATAAATTGATAATTATCACACCCATAAATTGATATTGCCTCTGATCATAGTCAGACCAACATTGCTACGACCCGTATTCGCACCGACAC | -1.83 ± 0.7 | -0.523 ± 0.031 |
| ACATTTGTTGAGCCAACCATAAAATGATAATTACACCCATAAATTGATAATTATCACACCCATAAATTGATATTGCCTCTGATCATAGTCAGACCAACATTGCTACGACCCGTATTCGCACCGACAC | -0.934 ± 0.11 | -0.297 ± 0.0032 |
| ACATTTGTTGATAAAACCATAAAATGATAATTAAACCCATAAATTGATAATTATCAAACCCATAAATTGATATTGCCTCTGATCATAGTCAGACCAACATTGCTACGACCCGTATTCGCACCGACAC | -0.129 ± 0.36 | -0.472 ± 0.18 |
| ACATTTGTTGATAAAACCATAAAATGATAATTAGACCCATAAATTGATAATTATCACACCCATAAATTGATATTGCCTCTGATCATAGTCAGACCAACATTGCTACGACCCGTATTCGCACCGACAC | -1.02 ± 0.36 | -1.09 ± 0.15 |
| ACATTTGTTGATAAAACCATAAAATGATTATTACACCCATAAATTGATAATTATCACACCCATAAATTGATATTGCCTCTGATCATAGTCAGACCAACATTGCTACGACCCGTATTCGCACCGACAC | -0.755 ± 0.22 | -1.05 ± 0.087 |
| ACATTTGTTGATAAAACCATAAAATGATTATTAGAAACCATAATCTGAAATTATCACACCCATAAATTGATATTGCCTCTGATCATAGTCAGACCAACATTGCTACGACCCGTATTCGCACCGACAC | -2.22 ± 0.34 | -3.26 ± 0.065 |
